Legend:
[1] = Survival of SOD activity in the blood circulation (plasma SOD activity after i.v. infusion); assay type: in vivo, Wister rats; conditions: for Half life (half survival time of SOD activity in the circulation) / Time to 30% residual activity: 20 mg SOD content/kg, femoral vein, rats
Method: For each stabilized SOD obtained in the Examples, the survival time in the blood circulation was measured as follows. Four Wister rats, seven weeks old and weighing 249 to 277 g, were used for each sample. The rats were infused with 20 mg of the sample (20 mg SOD content for the modified SOD; 5 mg per rat) dissolved in a saline solution (0.5 ml per rat) per kg of body weight through the femoral vein, and samples of blood, each 0.2 ml, were withdrawn 5, 15 and 30 minutes and 1, 2, 4, 8, 24 and 48 hours after the injection. Each blood sample was centrifuged, and the SOD activity of the plasma was determined by the method of J. M. McCord et al (J. Biol. Chem.,.244, No. 22, 6049-55, 1969).

Lewis-lung tumor = experiment: Prevention of tumor metastasis (Lewis-lung tumor implanted in mice); assay type: in vivo, C57BL-6 mice; conditions: for Inhibition ratio (%) (number of tumor colonies) / Inhibition ratio (%) (weight of lung tumor) / Mean number of tumor colonies / Mean weight of lung tumor: 2 mg/kg i.v.
Method: 10^6 cells of Lewis-lung tumor were implanted onto the foot of a number of C57BL-6 mice, and the implanted tumor was removed at seventh day after the transplantation (n=7).
The modified SOD (m-SOD) obtained in Example 1 was dissolved in a saline solution (5 mg by SOD content in 1 ml saline solution). To the mice, the modified SOD solution (2 mg by SOD content per kg) was injected intravenously once a day for 5 days from the seventh day or fourteenth day after the transplantation.
On the 22nd day after the transplantation, the lungs were taken out and the number of colonies of metastasizing cells was determined. The inhibition of the metastasis was evaluated by the decrease of the number of colonies and the weight of metastasizing lung tumor.

superoxide dismutase [2] = biological target: superoxide dismutase (Bos taurus, UniProt P00442); experiment: SOD enzyme activity by the method of McCord et al (residual activity vs starting SOD); assay type: biochemical, bovine; human
superoxide dismutase (Bos taurus, UniProt P00442), sequence (P00442 2-152 limits assumed): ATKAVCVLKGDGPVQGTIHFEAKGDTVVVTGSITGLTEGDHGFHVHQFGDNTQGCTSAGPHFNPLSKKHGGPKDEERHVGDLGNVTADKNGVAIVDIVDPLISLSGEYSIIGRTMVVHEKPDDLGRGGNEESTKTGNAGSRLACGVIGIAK
Method: (§1) The residual activity was obtained by the following method.
(§2) The concentration of each enzyme was obtained by the absorption method as mentioned above, and the residual activity was calculated from a comparison in activity after the reaction.

superoxide dismutase [3] = experiment: as above; assay type: biochemical, bovine; human
Method: as §1, §2

superoxide dismutase [4] = conditions: starting material as purchased; cited from earlier work

Substance | Half life (half survival time of SOD activity in the circulation) [1] [min] | Time to 30% residual activity [1] [h] | activity in the blood circulation with time ([1]; FIG. 5) | Inhibition ratio (%) (number of tumor colonies) (Lewis-lung tumor; 5 injections after 7th day) | Inhibition ratio (%) (weight of lung tumor) (Lewis-lung tumor; 5 injections after 7th day) | Mean number of tumor colonies (Lewis-lung tumor; 5 injections after 7th day) | Mean weight of lung tumor (Lewis-lung tumor; 5 injections after 7th day) [g] | Inhibition ratio (%) (number of tumor colonies) (Lewis-lung tumor; 5 injections after 14th day) | Inhibition ratio (%) (weight of lung tumor) (Lewis-lung tumor; 5 injections after 14th day) | Mean number of tumor colonies (Lewis-lung tumor; 5 injections after 14th day) | Mean weight of lung tumor (Lewis-lung tumor; 5 injections after 14th day) [g] | number of colonies as compared to the non-treated mice (Lewis-lung tumor; "decreased below 40%") | weight of tumor as compared to the non-treated mice (Lewis-lung tumor; "decreased below 40%") | total activity (superoxide dismutase [2]; freeze-dried stabilized SOD) [units] | total activity (superoxide dismutase [2]; reaction mixture after completion of the reaction) [units] | residual activity (superoxide dismutase [2]; reaction mixture after completion of the reaction, in comparison with the original SOD) [%] | Residual enzyme activity (%) (superoxide dismutase [3]; Table 1, stabilized SOD of Examples) | residual activity (superoxide dismutase [3]; isolated stabilized SOD, text of Examples) [%] | specific activity of purchased SOD (superoxide dismutase [4]) [units/mg]
Example 1: bovine SOD amide-linked to α-carboxymethyl, ω-carboxymethoxy polyoxyethylene (molecular weight about 4000), 2.4 molecules per enzyme | 240 | 10 | rapidly reduces after a few hours from the adminstration, and then it reduces slowly | 65 | 66 | 10.5 | 0.15 | 72 | 77 | 8.4 | 0.10 | below 40% | below 40% | 236000 | 285000 | 95±5 | 95 | 95 | 
bovine SOD: Superoxide dismutase derived from a bovine blood produced by Toyobo Co., Japan | 6 | 0.15 |  |  |  |  |  |  |  |  |  |  |  |  |  |  |  |  | 3000
human SOD: SOD derived from human erythrocyte purchased from Sigma Co. | 6 | 0.15 |  |  |  |  |  |  |  |  |  |  |  |  |  |  |  |  | 2300
